Experiment [1] concerns the target RPA32C C-terminal domain (Homo sapiens) (UniProt P15927). Put plainly: ITC. The note with it: cited from earlier work.
Experiment [2] addresses T1, RPA32 construct spanning the region 210-270 (UniProt P15927 210-270, RED-tris-NTA dye on the His tag).
T1 construct: RPA32, residues 210-270 (C-terminal winged helix domain); Cloned by LIC; also called RPA32(210-270); C-terminal winged helix domain of RPA32; source: E. coli SoluBL21, purified (Ni-NTA, anion exchange, SEC)
Put plainly: MST; RPA32C labelled with RED-tris-NTA (His-tag labelling kit), 100 nM mixed 1:1 with 2-fold serial dilutions of the ligand; 50 mM HEPES pH 8.0, 400 mM NaCl, 10% glycerol, 0.05% Tween-20; incubated 30 min at 37°C, measured at 25°C; three replicates. The note with it: both partners purified.

T1 sequence (P15927 210-270): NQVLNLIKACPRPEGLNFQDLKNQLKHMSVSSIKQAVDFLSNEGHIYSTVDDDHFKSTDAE
Sequence of RPA32C C-terminal domain (Homo sapiens) (P15927 202-270): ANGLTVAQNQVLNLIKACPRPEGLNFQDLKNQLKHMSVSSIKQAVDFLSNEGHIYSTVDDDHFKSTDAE

The term Kd denotes the concentration at which binding is half-saturated. As to “SMARCAL1 peptide 5-30 (from UniProt Q9NZC9)”, the Kd in experiment [1] is 2.9 µM.

B1: SMARCAL1 peptide (residues 5-30) (peptide)
peptide: LTEEQRKKIEENRQKALARRAEKLLA
notes: SMARCAL1, residues 5-30; also called 26-amino acid SMARCAL1 peptide; source: synthetic peptide, bought: LifeTein, LLC
Consider B1, for which the Kd in experiment [2] came out at 470 µM.

The record behind these values is publication PMC11109976, “CSB and SMARCAL1 compete for RPA32 at stalled forks and differentially control the fate of stalled forks in BRCA2-deficient cells” (Nucleic Acids Research, 2024).
